# According to article PMC8591454 (Frontiers in Microbiology, 2021):
# T1: truncated capsid protein sar239 from genotype 1 HEV Sar55 strain (hepatitis E virus genotype 1, strain …, UniProt P33426 368-606)
# T1 sequence: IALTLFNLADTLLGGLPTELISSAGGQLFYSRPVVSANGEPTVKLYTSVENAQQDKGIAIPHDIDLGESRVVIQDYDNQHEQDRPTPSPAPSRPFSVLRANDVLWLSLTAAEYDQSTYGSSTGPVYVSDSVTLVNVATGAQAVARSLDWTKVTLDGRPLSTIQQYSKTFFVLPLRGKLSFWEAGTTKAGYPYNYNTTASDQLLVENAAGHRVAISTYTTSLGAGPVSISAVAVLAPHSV
# Biological target: T1, truncated capsid protein sar239 from …
# Assay: ELISA
# Details: both partners purified
binder,measurement,value
"His-tagged cell division control protein 42 (CDC42-His) (natural protein, also called recombinant CDC42-His protein) not shown",binding result,binds
